Legend:
[1] = target: Human 4-1BB + Mouse 4-1BB domain1,2A,2B(aa24-86) (human; mouse); assay: FACS, transiently transfected Expi293 cells (cell A)
[2] = target: Human 4-1BB + Mouse 4-1BB domain1,4B,NF(aa24-46,aa139-186) (human; mouse); assay: FACS, transiently transfected Expi293 cells (cell F)
Chain of Human 4-1BB + Mouse 4-1BB domain1,4B,NF(aa24-46,aa139-186) (human; mouse) (chain, as listed by the source): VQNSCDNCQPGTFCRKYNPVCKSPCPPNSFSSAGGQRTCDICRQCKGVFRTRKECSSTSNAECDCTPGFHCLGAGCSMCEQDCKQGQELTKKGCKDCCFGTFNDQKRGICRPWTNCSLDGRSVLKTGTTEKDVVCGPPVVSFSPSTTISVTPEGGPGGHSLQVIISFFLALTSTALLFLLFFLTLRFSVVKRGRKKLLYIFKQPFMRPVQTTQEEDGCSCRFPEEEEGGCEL

Chain of Human 4-1BB + Mouse 4-1BB domain1,2A,2B(aa24-86) (human; mouse) (chain, as listed by the source): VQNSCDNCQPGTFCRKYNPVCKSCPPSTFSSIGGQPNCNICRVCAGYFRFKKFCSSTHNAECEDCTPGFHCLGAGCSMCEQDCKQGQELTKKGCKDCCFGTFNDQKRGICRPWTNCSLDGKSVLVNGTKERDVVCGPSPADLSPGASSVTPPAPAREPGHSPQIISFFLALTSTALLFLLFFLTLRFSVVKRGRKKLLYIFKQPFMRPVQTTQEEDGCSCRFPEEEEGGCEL

- Mean fluorescence intensity [1]: 948
- Mean fluorescence intensity [2]: 1870
B1: Hanke10F4 (antibody, human IgG4 S228P, kappa, V domains shown)
VH: QVQLQESGPGLVKPSETLSITCTVSGSSLTSYGVHWVRQPPGKGLEGLGVIWPGGSTNYNSALMSRLTISKDNSKSQVSLKMSSLTAADTAMYYCARVTGTWYFDVWGQGTTVTVSS
VL: DIQMTQSPSSLSASLGDRVTISCSASQGISNYLNWYQQKPDGTVKLLIYYTSTLHSGVPSRFSGSGSGTDFTLTISSLQPEDVATYYCQQYSKLPWTFGGGTKLEIKR
